Measurements from article PMC3870252, “The N-Terminal Membrane-Spanning Domain of the Escherichia coli DNA Translocase FtsK Hexamerizes at Midcell” (mBio, 2013).
Where “and” joins values, the source holds several entries; their conditions need not be identical. Equal values may be shown once.

Assays:
[1] = molecular target: TtFtsKN (purified N-terminal domain of FtsK from Thermoanaerobacter tengcongensis) (Thermoanaerobacter tengcongensis); experiment: SEC-MALS; Superdex S-200 column, in DDM detergent; masses after subtraction of the micelle contribution; hexamer and monomer peaks
[2] = molecular target: TtFtsKN (purified N-terminal domain of FtsK from Thermoanaerobacter tengcongensis) (Thermoanaerobacter tengcongensis); experiment: oligomer bands on SDS-PAGE of SEC fractions; fractions of the Superdex S-200 second purification step at a lower DDM detergent concentration, 12% Coomassie blue-stained SDS-PAGE
[3] = molecular target: EcFtsKN (purified N-terminal domain of FtsK from E. coli) (E. coli); experiment: as above
[4] = molecular target: the molecule itself; experiment: quantitative live-cell fluorescence stoichiometry (widefield microscopy); live E. coli in minimal glycerol medium; integrated midcell fluorescence divided by the intensity of a single YPet fluorophore; periodicity from the power spectrum of measured stoichiometries

TtFtsKN (purified N-terminal domain of FtsK from Thermoanaerobacter tengcongensis) (domain or fragment), sequence (Q8R5S4 371-568): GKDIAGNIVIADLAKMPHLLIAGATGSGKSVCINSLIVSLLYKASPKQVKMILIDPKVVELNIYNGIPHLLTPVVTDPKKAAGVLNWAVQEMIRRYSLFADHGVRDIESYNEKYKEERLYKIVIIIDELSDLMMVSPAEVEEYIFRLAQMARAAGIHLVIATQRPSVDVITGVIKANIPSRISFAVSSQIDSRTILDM

| Molecule | stoichiometry N [4] | also measured |
| --- | --- | --- |
| TtFtsKN (purified N-terminal domain of FtsK from Thermoanaerobacter tengcongensis) (domain or fragment) | – | stoichiometry N [1]: 6; stoichiometry N [2]: 2 and 6 |
| EcFtsKN (purified N-terminal domain of FtsK from E. coli) (domain or fragment) | – | stoichiometry N [3]: 2 and 6 |
| FtsKN-YPet (N-terminal domain of E. coli FtsK, amino acids 1 to 210) (domain or fragment, UniProt P46889 1-210, looked up, FtsK, Escherichia coli, N-terminal membrane-spanning domain, amino acids 1 to 210; source: expressed from the endogenous chromosomal locus, E. coli K-12 AB1157 derivative, in live cells; not shown: YPet, C-terminal, kept) MSQEYIEDKEVTLTKLSSGRRLLEALLILIVLFAVWLMAALLSFNPSDPSWSQTAWHEPIHNLGGMPGAWLADTLFFIFGVMAYTIPVIIVGGCWFAWRHQSSDEYIDYFAVSLRIIGVLALILTSCGLAAINADDIWYFASGGVIGSLLSTTLQPLLHSSGGTIALLCVWAAGLTLFTGWSWVTIAEKLGGWILNILTFASNRTRRDDT | 6 | – |
| FtsKΔC-YPet (FtsK derivative lacking the C-terminal domain, amino acids 1 to 818) (domain or fragment, E. coli, UniProt P46889 1-818, looked up, FtsK, Escherichia coli, amino acids 1 to 818 (lacks the C-terminal translocase domain); source: expressed from the endogenous chromosomal locus, E. coli K-12 AB1157 derivative, in live cells; not shown: YPet, C-terminal, kept) MSQEYIEDKEVTLTKLSSGRRLLEALLILIVLFAVWLMAALLSFNPSDPSWSQTAWHEPIHNLGGMPGAWLADTLFFIFGVMAYTIPVIIVGGCWFAWRHQSSDEYIDYFAVSLRIIGVLALILTSCGLAAINADDIWYFASGGVIGSLLSTTLQPLLHSSGGTIALLCVWAAGLTLFTGWSWVTIAEKLGGWILNILTFASNRTRRDDTWVDEDEYEDDEEYEDENHGKQHESRRARILRGALARRKRLAEKFINPMGRQTDAALFSGKRMDDDEEITYTARGVAADPDDVLFSGNRATQPEYDEYDPLLNGAPITEPVAVAAAATTATQSWAAPVEPVTQTPPVASVDVPPAQPTVAWQPVPGPQTGEPVIAPAPEGYPQQSQYAQPAVQYNEPLQQPVQPQQPYYAPAAEQPAQQPYYAPAPEQPVAGNAWQAEEQQSTFAPQSTYQTEQTYQQPAAQEPLYQQPQPVEQQPVVEPEPVVEETKPARPPLYYFEEVEEKRAREREQLAAWYQPIPEPVKEPEPIKSSLKAPSVAAVPPVEAAAAVSPLASGVKKATLATGAAATVAAPVFSLANSGGPRPQVKEGIGPQLPRPKRIRVPTRRELASYGIKLPSQRAAEEKAREAQRNQYDSGDQYNDDEIDAMQQDELARQFAQTQQQRYGEQYQHDVPVNAEDADAAAEAELARQFAQTQQQRYSGEQPAGANPFSLDDFEFSPMKALLDDGPHEPLFTPIVEPVQQPQQPVAPQQQYQQPQQPVPPQPQYQQPQQPVAPQPQYQQPQQPVAPQQQYQQPQQPVAPQQQYQQPQQPVAPQPQDT | 6.05 | – |
| FtsK-YPet (wild-type E. coli FtsK with a C-terminal YPet fusion) (natural protein, UniProt P46889 1-1329, looked up, FtsK, DNA translocase, Escherichia coli; wild-type protein, 1,329 amino acids, integral membrane protein; also called wild-type FtsK; source: expressed from the endogenous wild-type chromosomal locus, E. coli K-12 AB1157 derivative, in live cells; not shown: YPet, C-terminal, kept) MSQEYIEDKEVTLTKLSSGRRLLEALLILIVLFAVWLMAALLSFNPSDPSWSQTAWHEPIHNLGGMPGAWLADTLFFIFGVMAYTIPVIIVGGCWFAWRHQSSDEYIDYFAVSLRIIGVLALILTSCGLAAINADDIWYFASGGVIGSLLSTTLQPLLHSSGGTIALLCVWAAGLTLFTGWSWVTIAEKLGGWILNILTFASNRTRRDDTWVDEDEYEDDEEYEDENHGKQHESRRARILRGALARRKRLAEKFINPMGRQTDAALFSGKRMDDDEEITYTARGVAADPDDVLFSGNRATQPEYDEYDPLLNGAPITEPVAVAAAATTATQSWAAPVEPVTQTPPVASVDVPPAQPTVAWQPVPGPQTGEPVIAPAPEGYPQQSQYAQPAVQYNEPLQQPVQPQQPYYAPAAEQPAQQPYYAPAPEQPVAGNAWQAEEQQSTFAPQSTYQTEQTYQQPAAQEPLYQQPQPVEQQPVVEPEPVVEETKPARPPLYYFEEVEEKRAREREQLAAWYQPIPEPVKEPEPIKSSLKAPSVAAVPPVEAAAAVSPLASGVKKATLATGAAATVAAPVFSLANSGGPRPQVKEGIGPQLPRPKRIRVPTRRELASYGIKLPSQRAAEEKAREAQRNQYDSGDQYNDDEIDAMQQDELARQFAQTQQQRYGEQYQHDVPVNAEDADAAAEAELARQFAQTQQQRYSGEQPAGANPFSLDDFEFSPMKALLDDGPHEPLFTPIVEPVQQPQQPVAPQQQYQQPQQPVPPQPQYQQPQQPVAPQPQYQQPQQPVAPQQQYQQPQQPVAPQQQYQQPQQPVAPQPQDTLLHPLLMRNGDSRPLHKPTTPLPSLDLLTPPPSEVEPVDTFALEQMARLVEARLADFRIKADVVNYSPGPVITRFELNLAPGVKAARISNLSRDLARSLSTVAVRVVEVIPGKPYVGLELPNKKRQTVYLREVLDNAKFRDNPSPLTVVLGKDIAGEPVVADLAKMPHLLVAGTTGSGKSVGVNAMILSMLYKAQPEDVRFIMIDPKMLELSVYEGIPHLLTEVVTDMKDAANALRWCVNEMERRYKLMSALGVRNLAGYNEKIAEADRMMRPIPDPYWKPGDSMDAQHPVLKKEPYIVVLVDEFADLMMTVGKKVEELIARLAQKARAAGIHLVLATQRPSVDVITGLIKANIPTRIAFTVSSKIDSRTILDQAGAESLLGMGDMLYSGPNSTLPVRVHGAFVRDQEVHAVVQDWKARGRPQYVDGITSDSESEGGAGGFDGAEELDPLFDQAVQFVTEKRKASISGVQRQFRIGYNRAARIIEQMEAQGIVSEQGHNGNREVLAPPPFD | 6.12 | – |
